Results published in patent publication US20050132443A1.

Target: tobacco ethylene-responsive transcription factor ERF4 (tobacco) (UniProt Q40478)
Assay: cell-based or functional assay

tobacco ethylene-responsive transcription factor ERF4 (tobacco), sequence (Q40478 whole entry): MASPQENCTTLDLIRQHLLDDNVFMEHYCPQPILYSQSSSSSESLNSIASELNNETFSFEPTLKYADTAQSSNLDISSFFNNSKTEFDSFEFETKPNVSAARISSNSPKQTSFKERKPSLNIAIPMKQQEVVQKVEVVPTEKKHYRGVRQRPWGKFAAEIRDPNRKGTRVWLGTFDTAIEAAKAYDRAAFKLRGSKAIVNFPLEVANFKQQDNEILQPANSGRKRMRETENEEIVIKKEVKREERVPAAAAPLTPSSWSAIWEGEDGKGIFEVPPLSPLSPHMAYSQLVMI

GUS activity (pERE-GUS reporter, transient assay in tobacco leaves): 5.5 fold
Substance: Multiprotein Bridging Factor 1 of Oryza sativa (oMBF1)
